Assay results as given in paper doi:10.1101/2020.04.03.022855 (bioRxiv, 2020).

Target: the molecule itself
Test: cross-linking

B1: Seventeen kilodalton protein (Skp), unlabelled (natural protein, Escherichia coli, UniProt P0AEU7 21-161, looked up)
chain: ADKIAIVNMGSLFQQVAQKTGVSNTLENEFKGRASELQRMETDLQAKMKKLQSMKAGSDRTKLEKDVMAQRQTFAQKAQAFEQDRARRSNEERGKLVTRIQTAVKSVANSQDIDLVVDANAVAYNSSDVKDITADVLKQVK
stoichiometry N: 3
